Assay results taken from patent publication US20260146094A1 (CHIA TAI TIANQING PHARMACEUTICAL GROUP, published 2026).
Each block holds one binder with its values, some of them ahead of it.

Assays:
[1] = target: T1, macaque c-Met on macaque epithelial cell 4MBr-5 (macaque); assay: flow cytometry on 4MBr-5 macaque epithelial cells
T1 construct: whole, on cells; also called 4MBr-5 cell

[2] = target: human c-Met on natural human tumor cell lines (H1993, MKN45, KP4, H441) (human, UniProt P08581 25-1390); assay: cell-based or functional assay
Sequence of human c-Met on natural human tumor cell lines (H1993, MKN45, KP4, H441) (P08581 25-1390): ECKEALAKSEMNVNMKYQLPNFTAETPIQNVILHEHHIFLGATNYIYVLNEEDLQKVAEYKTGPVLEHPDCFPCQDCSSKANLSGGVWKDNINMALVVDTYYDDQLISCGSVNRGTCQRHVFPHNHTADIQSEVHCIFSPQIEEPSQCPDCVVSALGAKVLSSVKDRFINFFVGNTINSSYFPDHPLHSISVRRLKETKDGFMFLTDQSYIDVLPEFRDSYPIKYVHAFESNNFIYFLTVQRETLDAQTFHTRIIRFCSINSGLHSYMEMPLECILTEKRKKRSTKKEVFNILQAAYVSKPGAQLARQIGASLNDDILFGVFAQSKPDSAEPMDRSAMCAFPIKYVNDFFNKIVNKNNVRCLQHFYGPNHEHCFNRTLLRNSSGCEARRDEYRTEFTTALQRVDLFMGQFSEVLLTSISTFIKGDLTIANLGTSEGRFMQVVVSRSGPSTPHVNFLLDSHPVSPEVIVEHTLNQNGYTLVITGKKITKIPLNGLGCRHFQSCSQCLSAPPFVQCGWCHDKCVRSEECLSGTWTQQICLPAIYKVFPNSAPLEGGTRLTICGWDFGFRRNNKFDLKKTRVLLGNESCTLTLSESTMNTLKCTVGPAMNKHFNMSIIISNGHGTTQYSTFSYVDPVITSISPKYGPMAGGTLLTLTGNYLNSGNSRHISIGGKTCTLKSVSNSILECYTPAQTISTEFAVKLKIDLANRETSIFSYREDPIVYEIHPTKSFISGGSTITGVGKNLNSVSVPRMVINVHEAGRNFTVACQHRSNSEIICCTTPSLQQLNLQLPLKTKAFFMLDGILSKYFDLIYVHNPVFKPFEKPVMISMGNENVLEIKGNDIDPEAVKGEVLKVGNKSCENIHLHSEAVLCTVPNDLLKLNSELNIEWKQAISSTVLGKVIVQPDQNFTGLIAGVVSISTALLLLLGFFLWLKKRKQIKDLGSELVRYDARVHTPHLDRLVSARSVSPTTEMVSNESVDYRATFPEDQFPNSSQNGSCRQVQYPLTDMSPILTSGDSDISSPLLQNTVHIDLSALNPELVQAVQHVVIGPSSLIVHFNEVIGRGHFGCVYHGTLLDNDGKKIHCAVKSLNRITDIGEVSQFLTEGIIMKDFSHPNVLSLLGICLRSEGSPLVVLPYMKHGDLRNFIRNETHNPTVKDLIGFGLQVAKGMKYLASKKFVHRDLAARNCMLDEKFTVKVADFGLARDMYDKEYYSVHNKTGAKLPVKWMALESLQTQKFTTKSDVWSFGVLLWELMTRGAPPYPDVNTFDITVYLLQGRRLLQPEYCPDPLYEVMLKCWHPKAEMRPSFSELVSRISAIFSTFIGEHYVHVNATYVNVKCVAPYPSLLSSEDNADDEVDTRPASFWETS

[3] = target: T2, Human c-Met-His (SinoBiological, product catalog No. 10692-H08H) (human, UniProt P08581 25-932); assay: competitive ELISA, coated human c-Met-His, blocking of HGFβ
T2 construct: Bought protein; also called human c-Met-His protein; c-Met-His protein; not shown: His tag
T2 sequence (P08581 25-932 limits assumed): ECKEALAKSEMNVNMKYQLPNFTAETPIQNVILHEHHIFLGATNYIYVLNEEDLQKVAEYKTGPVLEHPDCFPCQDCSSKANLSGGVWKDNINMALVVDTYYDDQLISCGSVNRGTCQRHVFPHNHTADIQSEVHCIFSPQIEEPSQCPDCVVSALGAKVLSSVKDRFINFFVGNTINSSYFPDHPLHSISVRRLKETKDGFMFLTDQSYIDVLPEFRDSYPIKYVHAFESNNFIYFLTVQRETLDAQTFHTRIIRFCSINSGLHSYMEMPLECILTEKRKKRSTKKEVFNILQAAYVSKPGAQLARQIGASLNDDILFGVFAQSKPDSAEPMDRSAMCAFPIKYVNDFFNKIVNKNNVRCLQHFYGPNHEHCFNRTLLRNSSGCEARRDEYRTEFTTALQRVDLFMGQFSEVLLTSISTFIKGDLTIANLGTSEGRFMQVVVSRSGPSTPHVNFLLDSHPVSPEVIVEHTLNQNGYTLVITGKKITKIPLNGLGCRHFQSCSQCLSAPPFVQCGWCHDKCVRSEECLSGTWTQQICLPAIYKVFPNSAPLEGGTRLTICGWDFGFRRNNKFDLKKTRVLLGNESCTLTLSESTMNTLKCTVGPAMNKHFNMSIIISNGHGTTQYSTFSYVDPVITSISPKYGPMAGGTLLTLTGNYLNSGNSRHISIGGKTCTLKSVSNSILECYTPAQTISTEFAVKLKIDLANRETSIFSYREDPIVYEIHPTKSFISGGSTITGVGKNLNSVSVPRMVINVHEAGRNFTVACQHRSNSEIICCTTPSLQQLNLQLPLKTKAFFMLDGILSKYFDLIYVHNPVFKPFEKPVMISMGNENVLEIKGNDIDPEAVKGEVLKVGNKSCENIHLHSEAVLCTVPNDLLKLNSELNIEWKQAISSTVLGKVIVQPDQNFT
Procedure: (§1) After the plate was washed, an HRP-conjugated streptavidin (eBioscience, product catalog No. 18-4100-51) was added. The plate was incubated at 25° C. for 1 h and then washed 5 times, and a TMB substrate solution (TIANGEN, product catalog No. PA107) was added at 100 μL/well for color development. The light absorption signal values at the wavelength of 450 nm and the reference wavelength of 650 nm were measured. A curve (FIG. 2A) was fit, and the IC₅₀ values (Table 4) were calculated.
A curve (FIG. 2B) was fit based on the results, and the IC₅₀ values were calculated (Table 4).

[4] = target: T2, Human c-Met-His (SinoBiological, …); assay: competitive ELISA, coated human c-Met-His, blocking of biotin-HGF
Procedure: as §1

B1: 1B-3B11-Fc (antibody, human IgG1, V domains shown)
VH: QVQLVESGGGSVQAGGSLRLSCVVSGYTYSSVAWFRQTPGKEREGVAVINPGGDNTDYTYAVKGRFTISRDSAKSTVFLQMNNLESEDTAMYYCAAGRTFGGTWMDRNKWKYWGQGTLVTVSS
notes: Expressed in CHO; also called anti-human c-Met VHH-Fc chimeric antibody 1B-3B11-Fc
EC50 [1]: 0.736 nM

B2: 1B-1C7-Fc (antibody, human IgG1, V domains shown)
VH: QVQLVESGGGLVQPGGSLRLSCAASGYSYSANCVGWFYQAPGKEREGVAAINTGGETATYADFVKGRFTISQDYAKNTVYLQMNSLKSEDTGMYYCAAVGTRKYWDECSLSQHAYKNWGQGTLVTVSS
notes: also called anti-human c-Met VHH-Fc chimeric antibody 1B-1C7-Fc
EC50 [1]: 0.071 nM

B4: 1B-1A8-Fc (antibody, human IgG1, V domains shown)
VH: EVQLVESGGGLVQPGGSLRLSCVASGFTFKSYAMDWVRQAPGKGLEWIAGINSAGSPSYEASVKGRFTISRDNAENTLYLQLNSLKTEDTAMYYCTKCRDFRSPYCRPGQGTLVTVSS
notes: also called anti-human c-Met VHH-Fc chimeric antibody 1B-1A8-Fc
Phosphorylation inhibition IC50 (nM), H441 cells, Phospho-c-Met (Tyr1234/1235) AlphaLISA [2]: 0.85 nM
Phosphorylation inhibition, Maximum inhibition rate, H441 cells [2]: 90%
EC50 [1]: 0.471 nM
IC50 [3]: 3.56 nM
Maximum blocking rate [3]: 75%
IC50 [4]: 3.14 nM
Maximum blocking rate [4]: 63%

B5: 3B-1C7-Fc (antibody, human IgG1, V domains shown)
VH: QVQLVESGGDSVQAGGSLRLSCIASGFTFDGTTMGWYRQAPGDECELVSDISSDGNTYYSDSVKGRFTISQGNAKNTVYLQMNSLTPEDTAVYYCAAAEFRLLLRPLCRQDDYGYWGQGTLVTVSS
notes: also called anti-human c-Met VHH-Fc chimeric antibody 3B-1C7-Fc
EC50 [1]: 0.284 nM

The remaining binders from weak to strong by EC50 [1], led by results:

EC50 [1]: 0.682 nM
B3: 1B-1B6-Fc (antibody, human IgG1, V domains shown)
VH: QVQLVESGGDSVQAGGSLRLSCAASAHAYSSGCMGWFRQAPGKGREGVATIYTRNDFTYYSDSVKGRFTISRDDAKNTVYLQVNSLKAEDTAMYYCAAGSPFRYAGAWNVCGLKEEDYNYWGQGTLVTVSS
notes: also called anti-human c-Met VHH-Fc chimeric antibody 1B-1B6-Fc

EC50 [1]: 0.418 nM
B6: 1B-1B2-Fc (antibody, human IgG1, V domains shown)
VH: EVQLVESGGGSVQAGGSLRLSCTASGFTFDMGWYRQAPGDECELVSSISSDGNSDYLDSVKGRFTISQDNAKNTVYLQMNSLKPEDTAVYYCAANGAGHLVLRPLCGSNAVDAWGQGTLVTVSS
notes: also called anti-human c-Met VHH-Fc chimeric antibody 1B-1B2-Fc
